According to publication PMC11024197 (2024):

T1: PEX14 NTD (1-104) (human, UniProt O75381 1-104)
T1 chain: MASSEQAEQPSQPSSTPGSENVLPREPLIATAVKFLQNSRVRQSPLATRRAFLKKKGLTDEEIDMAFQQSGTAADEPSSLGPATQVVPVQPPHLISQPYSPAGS


Target: T1, PEX14 NTD (1-104)
Test: ITC

Kd [nM]	Binder
21	AQAEQWAAEFIQQQG [PEX5 W5 peptide]
72	ALSENWAQEFLAAGD [PEX5 W1 peptide]
